Results reported in US20260102420A1, “CANCER IMMUNOTHERAPY” (Hoffmann-La Roche Inc., priority 2022, published 2026).
Like-named read-outs stand apart in the source and are kept apart here.

Key:
[1] = system: MKN45 tumors; assay: In vivo cancer model, MKN45 wt or UAP1 KO tumors in stem cell humanized NSG mice
Protocol: FIGS. 8A, 8B, 8C, 8D, and 8E. Deletion of UAP1 sensitizes MKN45 tumors to immunotherapy. FIG. 8A: Tumor growth curves of MKN45 wt and UAP1 KO cell in stem cell humanized NSG mice (huNSG). Animals were dosed either with vehicle control, 0.2 mg/kg or 0.4 mg/kg CEA-TCB. Time point of first dosing at day 15 as indicated. Tumor volume was measured with a caliper. Mice per group (n=10). FIG. 8B: Tumor volume ratio of TCB therapy groups and vehicle control groups for every time point after the first TCB treatment. FIG. 8C: Tumor growth curves for individual mice. Two-way-ANOVA statistical analysis was done with Graphpad Prism software. FIG. 8D and FIG. 8E show the measured individual tumor volumes over time within the treatment groups corresponding to the average values shown in FIGS. 8A and FIG. 8B.
Immunocompetent C57BL/6J and NOD.Cg-PrkdcscidIL-2rgtm1Wjl/SzJ (NSG) mice were obtained from Charles River Laboratories. All animal studies were performed under local Swiss government ethical approval and regulations (license ZH183/2020) according to international FELASA and national GV-Solas and TierSchG guidelines, respectively. […]
B16F10 and MKN45 wtl and UAP1 KO cells were trypsinized, washed and resuspended using a 1:1 mixture of tissue culture medium and Matrigel in a total volume of 100 μl. […] Tumors were measured twice weekly and tumor volume (mm3) was determined using the formula 0.5×length×width2. […]

[2] = system: A549; assay: T cell-mediated killing assay, A549 wt vs UAP1 KO; assay type: cell-based, human; conditions: FIG. 3C
Protocol: FIGS. 3A, 3B, 3C and 3D. Tumor intrinsic UAP1 regulates TCB-mediated cytotoxicity in vitro. T cell-mediated killing assay. UAP1 knockout cells and wt cells for FIG. 3A MKN45 with CEA-TCB, FIG. 3B MKN45 with EpCAM-TCB, FIG. 3C A549 with CEA-TCB and FIG. 3D B16F10 with Tyrp1-TCB were used and measured was the cell count of tumor cells over time in an incucyte. Graphs show mean±SEM. P values were calculated using two-tailed paired Student t-test. *P<0.05, **P<0.01
25000 MKN45-nuclight red (NLR), 20000 A549-hCEA and 10000 B16F10-NLR tumor cells (wt or UAP1 ko) were seeded in one well of a 96 well-plate. Afterwards TCBs or siinfekl were given at the indicated concentrations. […] For MKN45-NLR and B16F10-NLR, T cell-mediated killing was calculated based on the red fluorescent signal coming from the tumor cells. All values were first transformed to fold-change to time 0, and % specific lysis was calculated as follows: […]
For A549-hCEA, the cytotox-green reagent (sartorius) was added to the co-culture at 1:16000 dilution and T-cell mediated killing was assesses by measuring green fluorescent count in each well. All values were first transformed to fold-change to time 0, and then % normalized green signal was calculated as follows: [(Green fluorescent counts TCB/Green fluorescent counts control TCB)×100]. […] T-cell mediated killing was measured as above. […]

[3] = system: CD8+ and CD4+ T cells; assay: Intra-tumor T cell activation marker analysis by flow cytometry; assay type: in vivo, mice; conditions: UAP1 KO groups, not in wt; 32 days post tumor injection; FIGS. 12A and 12B
Protocol: FIGS. 12A and 12B. 32 days post tumor injection, scouts were taken for intra-tumor T cell activation marker analysis. […] Data were obtained using flow cytometry. P values were calculated using two-tailed paired Student t-test. *P<0.05, **P<0.01
To confirm that the observed effect was due to the involvement of the endogenous mouse immune system, the experiment was repeated in NSG immunodeficient mice.

[4] = system: CEA expressing metastatic CRCs; conditions: cited from earlier work

B1: cibisatamab (antibody, chains of the INN, looked up, V domains shown)
VH: QVQLVQSGAEVKKPGASVKVSCKASGYTFTEFGMNWVRQAPGQGLEWMGWINTKTGEATYVEEFKGRVTFTTDTSTSTAYMELRSLRSDDTAVYYCARWDFAYYVEAMDYWGQGTTVTVSS
VL: DIQMTQSPSSLSASVGDRVTITCKASAAVGTYVAWYQQKPGKAPKLLIYSASYRKRGVPSRFSGSGSGTDFTLTISSLQPEDFATYYCHQYYTYPLFTFGQGTKLEIK
VH2: QVQLVQSGAEVKKPGASVKVSCKASGYTFTEFGMNWVRQAPGQGLEWMGWINTKTGEATYVEEFKGRVTFTTDTSTSTAYMELRSLRSDDTAVYYCARWDFAYYVEAMDYWGQGTTVTVSS
VL2: QAVVTQEPSLTVSPGGTVTLTCGSSTGAVTTSNYANWVQEKPGQAFRGLIGGTNKRAPGTPARFSGSLLGGKAALTLSGAQPEDEAEYYCALWYSNLWVFGGGTKLTVL
With B1 the tumor response ([1]; combination of UAP1 gene knockout and CEA TCB) was “complete tumor regression”, the tumor response ([1]; mice treated with CEA-TCB only) was “incomplete tumor growth control” and the “T cell killing of UAP1 KO cells compared to wt cells” value [2] was “more efficiently killed”. The “expression of the activation/exhaustion marker (Tim3) in intra-tumor T cells” value [3] was “increased expression”, the “patients with radiological shrinkage” value ([4]; in combination with PD-L1-inhibiting antibodies, 5/10 patients) was 50% and the “patients with radiological shrinkage” value ([4]; monotherapy, 4/36 patients, failed at least two prior chemotherapy regimens) was 11%.
